Data from PMC3741282, “Novel VEGF Decoy Receptor Fusion Protein Conbercept Targeting Multiple VEGF Isoforms Provide Remarkable Anti-Angiogenesis Effect In Vivo” (PLoS ONE, 2013).

Experiments:
Details in all cases: both partners purified
[1] = target: T1, placental growth factor (PlGF) (UniProt P49763 19-221); experiment: SPR; BIACORE 3000; VEGF-B167 and PlGF immobilized on CM5 chip, FC1 blank; conbercept injected at eight two-fold dilutions 31.25 nM to 4000 nM in HBS buffer
T1 chain: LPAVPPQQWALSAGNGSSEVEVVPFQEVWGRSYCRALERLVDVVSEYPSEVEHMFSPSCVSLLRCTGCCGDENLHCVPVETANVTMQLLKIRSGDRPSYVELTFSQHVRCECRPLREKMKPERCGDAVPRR

[2] = target: T2, VEGF-B167 (UniProt P49765-2 22-188); experiment: as above
T2 construct: VEGF-B, isoform VEGF-B167; source: bought: R&D
T2 sequence (looked up): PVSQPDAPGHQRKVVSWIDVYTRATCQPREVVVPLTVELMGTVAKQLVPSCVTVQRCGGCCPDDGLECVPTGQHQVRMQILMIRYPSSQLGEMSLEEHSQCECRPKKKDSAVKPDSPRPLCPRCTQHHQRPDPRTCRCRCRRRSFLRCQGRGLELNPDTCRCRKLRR

[3] = target: T3, VEGF-A165; experiment: ELISA; antigen (VEGF-A165, VEGF-B167 or PlGF) coated at 4 nM in PBS on PVC plate, blocked with 1% BSA; diluted conbercept added 2 h at room temperature; detected with HRP goat anti-human secondary antibody, absorbance at 450 nm
T3 chain: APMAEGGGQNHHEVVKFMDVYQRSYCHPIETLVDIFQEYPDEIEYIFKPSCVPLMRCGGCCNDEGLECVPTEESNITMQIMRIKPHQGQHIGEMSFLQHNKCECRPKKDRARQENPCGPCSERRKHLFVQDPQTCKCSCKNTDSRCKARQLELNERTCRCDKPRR

[4] = target: T3, VEGF-A165; experiment: SPR; BIACORE 3000; VEGF-A isoforms amine-coupled on CM5 chip (about 5,000±500 RU), FC1 blank; conbercept injected at eight two-fold dilutions 1.25 nM to 160 nM in HBS buffer (10 mM HEPES, 0.15 M sodium chloride, 3.4 mM EDTA, 0.005% surfactant P20); 1:1 binding with baseline drift model
[5] = target: T4, VEGF-A121; experiment: as above
T4 chain: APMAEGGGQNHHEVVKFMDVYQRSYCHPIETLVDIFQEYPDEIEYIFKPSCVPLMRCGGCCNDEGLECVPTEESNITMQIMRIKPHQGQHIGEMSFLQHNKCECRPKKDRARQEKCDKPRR

B1: conbercept (Fc fusion)
chain: GRPFVEMYSEIPEIIHMTEGRELVIPCRVTSPNITVTLKKFPLDTLIPDGKRIIWDSRKGFIISNATYKEIGLLTCEATVNGHLYKTNYLTHRQTNTIIDVVLSPSHGIELSVGEKLVLNCTARTELNVGIDFNWEYPSSKHQHKKLVNRDLKTQSGSEMKKFLSTLTIDGVTRSDQGLYTCAASSGLMTKKNSTFVRVHEKPFVAFGSGMESLVEATVGERVRIPAKYLGYPPPEIKWYKNGIPLESNHTIKAGHVLTIMEVSERDTGNYTVILTNPISKEKQSHVVSLVVYVPP
modifications: Human IgG1 Fc carrier left out; it dimerises the chain (copies 2). Limits not printed: VEGFR1 Ig2 and VEGFR2 Ig3-4 taken by convention from decoy-receptor boundaries and entry features. Glycosylated …
[1]
  Kd: 51.2 nM
  koff: 0.00581 s⁻¹
  kon: 114000 M⁻¹ s⁻¹
[2]
  Kd: 81.8 nM
  koff: 0.00558 s⁻¹
  kon: 68300 M⁻¹ s⁻¹
[3]
  EC50: 0.1 nM
[4]
  Kd: 5.4 nM
  koff: 0.00105 s⁻¹
  kon: 194000 M⁻¹ s⁻¹
[5]
  Kd: 5.26 nM
  koff: 0.00105 s⁻¹
  kon: 199000 M⁻¹ s⁻¹
